Source: article PMC8837689, “Allosteric control of Ubp6 and the proteasome via a bidirectional switch” (Nature Communications, 2022)
Positions count from the first letter of the chain named. Names and notes keep the numbering of the source. One block for each molecule: values may come before it.

What was measured:
[1] = target: 26S proteasome purified from rpt1-RK ubp6Δ hul5Δ yeast, Protein A-tagged (budding yeast) (UniProt P33299)
[2] = target: 26S proteasome purified from rpt1-RK ubp6Δ hul5Δ yeast, Protein A-tagged (budding yeast) (UniProt P33299); assay: Ub-AMC hydrolysis (activation of Ubp6 as a proxy for the association); Ubp6 1.25 nM to 60 nM titrated on 1 nM proteasome with 1 μM Ub-AMC; rates of Ubp6 alone and proteasome alone subtracted; hyperbolic fit; 50 mM Tris-HCl pH 7.5, 1 mM EDTA, 1 mM ATP, 5 mM MgCl2, 1 mM DTT, 1 mg/mL ovalbumin
[3] = target: 26S proteasome purified from ubp6Δ hul5Δ yeast (nominally wild-type), Protein A-tagged (budding yeast) (UniProt P33299); assay: as above
[4] = target: 26S proteasome purified from ubp6Δ hul5Δ yeast (nominally wild-type), Protein A-tagged (budding yeast) (UniProt P33299)
[5] = target: T1, Ubp6 (wild-type, His6-tagged) (budding yeast, UniProt P43593 1-499); assay: cryo-EM structure; 26S proteasomes and Ubp6-UbVS mixed 1:4 (400 nM 26S or 26S Rpt1-RK, 1.6 μM Ubp6-UbVS), 20 min on ice; 20 mM HEPES-NaOH pH 7.4, 40 mM NaCl, 4 mM DTT, 4 mM MgCl2, 4 mM ATP, ~25% sucrose; maps at 6 to 7 Å, models by flexible fitting; conditions: both partners purified
T1 construct: Ubp6, deubiquitinating enzyme, budding yeast; N-terminal UBL domain and C-terminal catalytic domain (residues 104 to 499); In the cryo-EM rows Ubp6 stood as the UbVS adduct; only the catalytic domain (104-499) was modelled; also called His6-Ubp6; wild-type Ubp6; source: E. coli Rosetta (DE3), purified (Ni-NTA)
T1 sequence (looked up): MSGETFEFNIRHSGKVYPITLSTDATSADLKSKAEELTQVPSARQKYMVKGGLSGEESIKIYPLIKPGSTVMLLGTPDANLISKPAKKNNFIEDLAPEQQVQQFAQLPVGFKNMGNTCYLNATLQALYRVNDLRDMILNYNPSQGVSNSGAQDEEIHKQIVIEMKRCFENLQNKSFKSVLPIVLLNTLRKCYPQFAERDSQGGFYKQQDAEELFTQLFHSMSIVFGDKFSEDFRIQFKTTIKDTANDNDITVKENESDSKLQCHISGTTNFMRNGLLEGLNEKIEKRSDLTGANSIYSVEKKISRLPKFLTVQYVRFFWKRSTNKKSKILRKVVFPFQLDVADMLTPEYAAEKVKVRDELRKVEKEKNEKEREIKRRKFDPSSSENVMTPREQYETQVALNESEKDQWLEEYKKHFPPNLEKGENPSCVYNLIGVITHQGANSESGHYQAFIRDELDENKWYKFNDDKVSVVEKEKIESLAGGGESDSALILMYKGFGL

[6] = target: T2, Rpt6 (proteasome subunit) (budding yeast, UniProt Q01939 1-405); assay: as above; conditions: both partners purified
T2 construct: Rpt6, ATPase of the regulatory particle, budding yeast; Stood in the assay as a subunit of m6; source: subunit of the 26S proteasome (3X FLAG) purified from yeast
T2 sequence: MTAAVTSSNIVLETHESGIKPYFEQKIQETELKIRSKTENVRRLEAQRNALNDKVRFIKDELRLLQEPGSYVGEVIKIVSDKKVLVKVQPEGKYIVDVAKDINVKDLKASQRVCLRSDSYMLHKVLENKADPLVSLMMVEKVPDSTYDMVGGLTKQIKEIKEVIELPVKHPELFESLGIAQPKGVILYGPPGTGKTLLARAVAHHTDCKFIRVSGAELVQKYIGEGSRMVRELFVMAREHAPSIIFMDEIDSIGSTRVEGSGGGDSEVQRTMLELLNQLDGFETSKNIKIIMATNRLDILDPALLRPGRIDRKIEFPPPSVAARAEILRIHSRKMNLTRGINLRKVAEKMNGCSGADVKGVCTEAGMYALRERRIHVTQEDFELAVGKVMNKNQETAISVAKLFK

Molecule: Ubp6 (wild-type, His6-tagged) (from UniProt P43593 1-499) (enzyme)
capacity of the Rpt1-RK proteasome to activate wild-type Ubp6 (Ub-AMC hydrolysis), loss relative to wild-type proteasome [1]: 97 % lost | Kd [2]: 2 nM | Kd [3]: 3.3 nM

Molecule: Ubp6-I329A L330A (from UniProt P43593 97-499) (enzyme)
proteasome-activated deubiquitinating activity (Ub-AMC hydrolysis) of Ubp6-AA relative to wild-type Ubp6 [4]: 2 % of WT | Kd [3]: 4 nM

B2: Rpt1-S164R T166K (natural protein, budding yeast)
chain: MPPKEDWEKYKAPLEDDDKKPDDDKIVPLTEGDIQVLKSYGAAPYAAKLKQTENDLKDIEARIKEKAGVKESDTGLAPSHLWDIMGDRQRLGEEHPLQVARCTKIIKGNGESDETTTDNNNSGNSNSNSNQQSTDADEDDEDAKYVINLKQIAKFVVGLGERVRPKDIEEGMRVGVDRSKYNIELPLPPRIDPSVTMMTVEEKPDVTYSDVGGCKDQIEKLREVVELPLLSPERFATLGIDPPKGILLYGPPGTGKTLCARAVANRTDATFIRVIGSELVQKYVGEGARMVRELFEMARTKKACIIFFDEIDAVGGARFDDGAGGDNEVQRTMLELITQLDGFDPRGNIKVMFATNRPNTLDPALLRPGRIDRKVEFSLPDLEGRANIFRIHSKSMSVERGIRWELISRLCPNSTGAELRSVCTEAGMFAIRARRKVATEKDFLKAVDKVISGYKKFSSTSRYMQYN
notes: Rpt1, ATPase of the regulatory particle, budding yeast, with S164R and T166K; Stood in the assay as a subunit of m7; also called Rpt1-RK; rpt1-RK; source: subunit of the Rpt1-RK 26S proteasome (3X FLAG) purified from yeast
binding result [5]: binds

B4: α3 subunit of the CP α ring (natural protein, budding yeast)
chain: MGSRRYDSRTTIFSPEGRLYQVEYALESISHAGTAIGIMASDGIVLAAERKVTSTLLEQDTSTEKLYKLNDKIAVAVAGLTADAEILINTARIHAQNYLKTYNEDIPVEILVRRLSDIKQGYTQHGGLRPFGVSFIYAGYDDRYGYQLYTSNPSGNYTGWKAISVGANTSAAQTLLQMDYKDDMKVDDAIELALKTLSKTTDSSALTYDRLEFATIRKGANDGEVYQKIFKPQEIKDILVKTGITKKDEDEEADEDMK
notes: alpha3 subunit of the core particle alpha ring, budding yeast; Stood in the assay as a subunit of m6; source: subunit of the 26S proteasome (3X FLAG) purified from yeast
binding result [6]: binds

Results, then the molecule that gave them:

binding result [5]: binds
B1: Rpt1 (proteasome subunit) (natural protein, budding yeast)
chain: B2 chain with R164S, K166T
notes: Rpt1, ATPase of the regulatory particle, budding yeast; Stood in the assays as a subunit of m6 or m10; source: subunit of the 26S proteasome (3X FLAG) or RP (Protein A) purified from yeast

binding result [6]: binds
B3: α2 subunit of the CP α ring (natural protein, budding yeast)
chain: MTDRYSFSLTTFSPSGKLGQIDYALTAVKQGVTSLGIKATNGVVIATEKKSSSPLAMSETLSKVSLLTPDIGAVYSGMGPDYRVLVDKSRKVAHTSYKRIYGEYPPTKLLVSEVAKIMQEATQSGGVRPFGVSLLIAGHDEFNGFSLYQVDPSGSYFPWKATAIGKGSVAAKTFLEKRWNDELELEDAIHIALLTLKESVEGEFNGDTIELAIIGDENPDLLGYTGIPTDKGPRFRKLTSQEINDRLEAL
notes: alpha2 subunit of the core particle alpha ring, budding yeast; Stood in the assay as a subunit of m6; source: subunit of the 26S proteasome (3X FLAG) purified from yeast
